Data: the supplement of paper PMC9732359
± gives the uncertainty stated by the source.

Assay: protein stability index of a GFP-peptide fusion (yeast GPS) (PSI 1-4); higher = more stable; sorted into four equal gates, so the index is relative within each strain
Summary of the method: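 Tiled 17-residue peptides from yeast proteins were fused downstream of GFP on a plasmid that also expresses Cherry, and the pooled library was carried in yeast. Mid-log cultures grown in leucine-free medium were sorted into four equal gates by GFP/Cherry fluorescence ratio. Plasmids from each gate were PCR-amplified and Illumina-sequenced, and reads were assigned to strains by barcodes. Each peptide's protein stability index is the sum, over gates, of the gate's read frequency multiplied by its gate number.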

Row | Sequence | protein stability index (doa10∆) | protein stability index (pdr5∆) | protein stability index (san1∆) | protein stability index (ubr1∆)
1 | ERVPKTQLDKLRPRKDS [SMB1] | 3.1 ± 0.051 | 3.07 ± 0.062 | 3.09 ± 0.032 | 3.17 ± 0.045
2 | NNLEPRQTTSNTGLLNK [RPN11] | 3.2 ± 0.062 | 3.24 ± 0.061 | 3.14 ± 0.044 | 3.32 ± 0.046
3 | VECAQHCIDYLRKNKLG [SMC4] | 1.44 ± 0.07 | 1.19 ± 0.068 | 1.62 ± 0.1 | 1.36 ± 0.058
4 | FTIQSFVSSLSNTSTLK [BRR2] | 1.83 ± 0.05 | 1.97 ± 0.041 | 2.01 ± 0.055 | 2.24 ± 0.034
5 | TSGEAAALGMGLCMLGT [RPN2] | 2.92 ± 0.19 | 2.95 ± 0.21 | 3.08 ± 0.12 | 2.68 ± 0.1
6 | HLEEYGYLIQVLLTFLQ [YCS4] | 1.59 ± 0.078 | 1.35 ± 0.09 | 1.21 ± 0.17 | 1.13 ± 0.097
7 | ESSFIEIDDTEAEVTAE [BRR2] | 3.01 ± 0.068 | 3.1 ± 0.088 | 2.98 ± 0.11 | 3.06 ± 0.052
8 | SGIRLIEPELFNGYNPE [FAS2] | 2.81 ± 0.067 | 2.89 ± 0.074 | 2.82 ± 0.073 | 2.83 ± 0.045
9 | KYRKRQLVTREAQIKDW [FAS2] | 2.81 ± 0.27 | 2.86 ± 0.15 | 2.93 ± 0.24 | 3.22 ± 0.11
10 | TVLESLGRLNKLRKIAI [LIN1] | 2.66 ± 0.057 | 2.69 ± 0.049 | 2.66 ± 0.058 | 2.95 ± 0.035
11 | AEKLGSKKAEKTGTKPA [RPL4A] | 3.14 ± 0.067 | 3.08 ± 0.07 | 3.13 ± 0.05 | 3.06 ± 0.072
12 | DHTVDEIDHVEYYVMMD [SRB8] | 3.01 ± 0.083 | 2.63 ± 0.062 | 2.96 ± 0.081 | 3.02 ± 0.047
13 | LRSTEYSKSFEQFKMVS [POP1] | 2.21 ± 0.089 | 2.63 ± 0.12 | 2.49 ± 0.094 | 2.52 ± 0.11
14 | QWLNNALKRSYGIFGEG [POP8] | 2.8 ± 0.08 | 3.02 ± 0.059 | 3.08 ± 0.07 | 3.15 ± 0.071
15 | TFHDYDMVKLDINPPLV [RRP42] | 2.94 ± 0.088 | 2.73 ± 0.061 | 2.87 ± 0.096 | 3.15 ± 0.037
16 | DWVENELEALKLEAEEI [FAS2] | 3.29 ± 0.27 | – | – | 3.49 ± 0.24
17 | ARILARSERKRTKISRG [ITC1] | 2.56 ± 0.062 | 3.1 ± 0.074 | 3.07 ± 0.078 | 2.06 ± 0.046
18 | LNGREVKAILMQRHVKV [RPS4A] | 1.23 ± 0.081 | 1.25 ± 0.063 | 1.39 ± 0.21 | 1.24 ± 0.051
19 | YSKSFEQFKMVSMITDH [POP1] | 2.3 ± 0.12 | 1.97 ± 0.23 | 1.62 ± 0.26 | 1.95 ± 0.15
20 | EAAKPSLSFGSGSAGAN [YJL041W/NSP1] | 2.83 ± 0.11 | 2.81 ± 0.13 | 3.02 ± 0.13 | 3 ± 0.071
21 | PVVRAPTVKYNRKVRAG [RPL13A] | 1.22 ± 0.1 | 2.15 ± 0.14 | 1.98 ± 0.18 | 1.49 ± 0.11
22 | TVMYQRRSKMNPLWNAI [PRE4] | 2.83 ± 0.084 | 3.18 ± 0.11 | 2.66 ± 0.089 | 3.09 ± 0.072
23 | NNNNSTRPQMPSRTRET [GRR1] | 2.937 ± 0.027 | 3.108 ± 0.027 | 2.949 ± 0.024 | 3.033 ± 0.021
24 | DFLRKATAFNKTRGPFH [RPL16A] | 2.19 ± 0.16 | 2.96 ± 0.2 | 3.04 ± 0.086 | 3.03 ± 0.12
25 | FSKAIEWDMLNVEEEQI [BRR2] | 2.71 ± 0.078 | 3.03 ± 0.11 | 2.54 ± 0.07 | 2.93 ± 0.06
26 | AAPAAAAAEIADEPVKA [FAS2] | 2.55 ± 0.063 | 2.74 ± 0.067 | 2.56 ± 0.078 | 2.53 ± 0.045
27 | DRRAQRVAEKRDALLKE [RPL19A] | 3.19 ± 0.12 | 3.25 ± 0.097 | 3.07 ± 0.15 | 3.44 ± 0.067

Row | Sequence | protein stability index (doa10∆) | protein stability index (pdr5∆) | protein stability index (san1∆) | protein stability index (ubr1∆)
28 | QGPVKNTQLHGPSATDP [RGR1] | 2.93 ± 0.062 | 3.06 ± 0.047 | 2.97 ± 0.053 | 3.02 ± 0.035
29 | SIGASIADLASLEQLLG [YCS4] | 2.84 ± 0.099 | 2.94 ± 0.064 | 2.9 ± 0.076 | 2.92 ± 0.033
30 | NHVMYTEVSRKSMKYVK [ECM29] | 2.37 ± 0.055 | 2.61 ± 0.06 | 2.27 ± 0.078 | 2.23 ± 0.039
31 | SMQTIAETIILSSAGKN [SRB5] | 2.09 ± 0.045 | 2.39 ± 0.048 | 1.8 ± 0.055 | 1.9 ± 0.029
32 | MDLFMSTLGDCLGIKDE [GAL11] | 3.54 ± 0.25 | – | 3.38 ± 0.16 | 3.22 ± 0.2
33 | NEKVAVMRNTYNTRKNA [GAL11] | 2.76 ± 0.14 | 3.14 ± 0.06 | 2.18 ± 0.072 | 2.37 ± 0.09
34 | NQQQPPQDILSKLYLLL [SNF11] | 2.09 ± 0.042 | 2.55 ± 0.051 | 2.47 ± 0.056 | 2.54 ± 0.045
35 | NEKLADLGLEKEFQSVD [RPC53] | – | – | 2 ± 0.17 | –
36 | IFVSILSDRANKNQDAF [ARP9] | 2.85 ± 0.057 | 2.39 ± 0.058 | 2.53 ± 0.066 | 2.87 ± 0.056
37 | VDSQGLPYNWDALEMQW [ARP7] | 1.7 ± 0.066 | 2.35 ± 0.07 | 2.64 ± 0.1 | 1.91 ± 0.073
38 | PFGAKSTKSNKAKNPLT [RPL8B] | 3.38 ± 0.094 | 3.1 ± 0.067 | 2.98 ± 0.061 | 2.93 ± 0.091
39 | LITPAVRNTAPNIRELG [YCG1] | 2.57 ± 0.18 | 2.76 ± 0.15 | 2.68 ± 0.28 | 3.09 ± 0.093
40 | QENKNIDDENITKLNKE [SRB4] | 3.44 ± 0.056 | 3.23 ± 0.068 | 3.22 ± 0.052 | 3.46 ± 0.057
41 | NQQPQQQQQQQQNPKFL [SWI1] | 2.96 ± 0.048 | 3.02 ± 0.04 | 2.989 ± 0.026 | 2.9 ± 0.029
42 | EITVVKPDSDIVALSSE [PRE6] | 3.1 ± 0.058 | 3.23 ± 0.051 | 3.24 ± 0.04 | 3.3 ± 0.049
43 | GSSASSRKAHGLNAKQL [POP1] | 3.21 ± 0.069 | 3.27 ± 0.084 | 3.13 ± 0.077 | 3.04 ± 0.066
44 | GSHLFSIHAHGSTDVGY [PUP1] | 2.58 ± 0.078 | 3.01 ± 0.15 | 2.92 ± 0.077 | 2.02 ± 0.081
45 | ESSLTISLYFNDILDEL [ECM29] | 1.89 ± 0.06 | 2.25 ± 0.051 | 2.38 ± 0.07 | 2.4 ± 0.061
46 | GRKYTTLGKLSTSVGWK [RPL16B] | 2.79 ± 0.1 | 1.94 ± 0.1 | 2.77 ± 0.11 | 2.64 ± 0.067
47 | DSTLILEQLAQHTTESD [RPB2] | 2.17 ± 0.05 | 2.67 ± 0.055 | 2.46 ± 0.072 | 2.43 ± 0.052
48 | TLKKEWLKEYEDETLRR [YIL149C/MLP2] | 3.12 ± 0.21 | 3.2 ± 0.18 | – | 3.52 ± 0.12
49 | QSLLSLYFEIIHGVLKN [FAS2] | 2.37 ± 0.12 | 1.84 ± 0.076 | 2.14 ± 0.17 | 1.51 ± 0.045
50 | KVAPAPFGAKSTKSNKT [RPL8A] | 2.68 ± 0.1 | 2.84 ± 0.076 | 2.74 ± 0.071 | 2.94 ± 0.068
51 | SRILKAQSRNVEIEKRI [YGR119C/NUP57] | 3.39 ± 0.07 | 3.15 ± 0.066 | 2.98 ± 0.067 | 2.67 ± 0.053
52 | ELGISLEHPYGKEVEVL [SNU114] | 2.29 ± 0.082 | 2.34 ± 0.086 | 2.17 ± 0.094 | 2.14 ± 0.056
53 | QSSAIGALQESVEAYLV [HHT1] | 2.04 ± 0.077 | 2.81 ± 0.087 | 2.39 ± 0.11 | 2.15 ± 0.079
